In the DeepSol protein solubility set:

Assay: soluble on expression in E. coli; label from the status in PepcDB or PDB records
With “MAELPAKRRFTRIDRLPPYVFNITSELKMAARRRGEDIIDFSMGNPDGPTPPHIVEKMCSVAQREDTHGYSTSRGIPCLRRAISRWYADRYQVDIDPENEAIVTIGSKEGLAHLMLATLDHGDTVLVPNPSYPIHIYGAVIAGAQVRSVPLTEGIDFFGELERAIRETIPKPKMMILGFPSNPTAQCVELDFFERVVALAKQYDVLVVHDLAYADIVYDGWKAPSIMQVPGAKDIAVEFFTLSKSYNMAGWRIGFMVGNPELVSALARIKSYHDYGTFTPLQVAAIAALEGDQQCVRDIAEQYRQRRNALVRGLHEAGWMVDNPKASMYVWAKIPEPYAHLGSLEFAKRLLAEAKVCVSPGIGFGDYGDTHVRFALIENQDRIRQAVRGIKSMFRADGLLKPGKSSPNEMA” the “soluble on expression in E. coli” value was “not soluble”.
In the case of “MAELQKVDDWLSALLANLEPAARSRMMRQLAQELRRTQQQNIRMQRNPDGSSYEPRRVTARSKKGRIKRQMFAKLRTTKYLKTAASADSASVQFEGKVQSIARVHHYGLRDRVSRKGPEVRYAERRLLGVNDDVEAMTRDMILQWLAG”, the “soluble on expression in E. coli” value is reported as “not soluble”.
For “MAELRVLVAVKRVIDYAVKIRVKPDRTGVVTDGVKHSMNPFCEIAVEEAVRLKEKKLVKEVIAVSCGPAQCQETIRTALAMGADRGIHVEVPPAEAERLGPLQVARVLAKLAEKEKVDLVLLGKQAIDDDCNQTGQMTAGFLDWPQGTFASQVTLEGDKLKVERAIDGGLETLRLKLPAVVTADLRLNEPRYATLPNIMKAKKKKIEVIKPGDLGVDLTSKLSVISVEDPPQRTAGVKVETTEDLVAKLKEIGRI”, the “soluble on expression in E. coli” value was “soluble”.
With “MAEPTAKAAPYENLMVPSPSMGRDIPVAFLAGGPHAVYLLDAFNAGPDVSNWVTAGNAMNTLAGKGISVVAPAGGAYSMYTNWEQDGSKQWDTFLSAELPDWLAANRGLAPGGHAAVGAAQGGYGAMALAAFHPDRFGFAGSMSGFLYPSNTTTNGAIAAGMQQFGGVDTNGMWGAPQLGRWKWHDPWVHASLLAQNNTRVWVWSPTNPGASDPAAMIGQAAEAMGNSRMFYNQYRSVGGHNGHFDFPASGDNGWGSWAPQLGAMSGDIVGAIRHHHHHH” the “soluble on expression in E. coli” value was “soluble”.
With “MAESSDKLYRVEYAKSGRASCKKCSESIPKDSLRMAIMVQSPMFDGKVPHWYHFSCFWKVGHSIRHPDVEVDGFSELRWDDQQKVKKTAEAGG” the “soluble on expression in E. coli” value was “soluble”.
With “MAEYEFMYIHSLAEHYLQYVLQVPAFESAPSQACRVLQRVAFSVQKEVEKNLKSYLDDFHVESIDTARIIFNQVMEKEFEDGIINWGRIVTIFAFGGVLLKKLPQEQIALDVGAYKQVSSFVAEFIINNTGEWIRRNGGWEDGFIKKFEPKSGWLTFLQMTGQIWEMLFLLK” the “soluble on expression in E. coli” value was “not soluble”.
For “MAFKNTKTLVFVLDGKLRNIPIAALFDGQQYLIEKYAVALSPGLQLMAAQSLEQNKIKAIVAGISESRSGFAALPAVESEVKQISQTIPSSMLLNQKFTSQALADRIKSSRADVVHLATHGQFSSRIEDTFLLTWDGQVNVKDLSELLKNRSGDSSKAIELLVLSACDTATGDDRAVLGLAGLAVKSGARSTIATLWPVKDKAAEMLMTRFYDQLRKPKITKAEALRQAQINLIHQTDFQDPFFWSAFVLVGNWLLEHHHHHH”, the “soluble on expression in E. coli” value was “not soluble”.
For “MAFLLALDQGTTSSRAILFTLEGRPVAVAKREFRQLYPKPGWVEHDPLEIWETTLWAAREVLRRAGAEAGEVLALGITNQRETTLLWDRKTGKPLHNAIVWQDRRTTPLCEALRAKGLEPLFRERTGLLFDPYFSGTKLVWLLENVPGLKARAEGGGVAFGTVDTWLIWNLTGGKVHATDPTNASRTLLFNLHTLAWDPELLEALGIPAALLPEVRPSDGDFGETLPELLGAPVPIRGVLGDQQAALFGQAALGGGEGKCTYGTGAFLLLNTGKRPVLSEKGLLATVAWSLGGRATYALEGSLFVAGAAVGWLKEVGLIRESAEVEALAASVEDTGDVYFVPAFTGLGAPYWDPYARGTLLGLTRGTSRAHLARAALEGVAFQVRDVVLAMEEEAGVRLKVLKADGGMAQNRLFLKIQADLLGVPVAVPEVTETTALGAALMAGVGAGALSPEDVAGRFREAERFLPTMPEGRREALYRRWREAVERAKGWAREG”, the “soluble on expression in E. coli” value was “soluble”.
With “MAFRVLVIGGYGNFGSLICNHLAMMPDIELVISGRDPRKLAEKVAALQTLAGRFCQSWCVDIMQDGAGSELGELGIDLLIHTAGPFQGQSYAVARHCIAAGVNYCDLSDCRTFVSGIATLDALAREAGVCVLSGCSSVPTLSAAIIDQHRQRFLRIDSIEHGISSAAKMPGLSTVR” the “soluble on expression in E. coli” value was “not soluble”.
In the case of “MAFSASIEDYALIGDQQSAALVARDGSIDWLCLPRFDSPACFAALLGDEHNGKWRIAPKGAGPCTRRAYRTDSLVLDSEWDTPEGTLRVTDLMPQRDSAPDLVRIVEGLRGRVTVRSAIRLRFDYGLEHHHHHH”, the “soluble on expression in E. coli” value is reported as “not soluble”.
In the case of “MAFSRTHSLLARAGSTSTYKRVWRYWYPLMTRGLGNDEIVFINWAYEEDPPMDLPLEASDEPNRAHINLYHRTATQVDLGGKQVLEVSCGHGGGASYLTRTLHPASYTGLDLNQAGIKLCKKRHRLPGLDFVRGDAENLPFDDESFDVVLNVEASHCYPHFRRFLAEVVRVLRPGGYFPYADLRPNNEIAAWEADLAATPLRQLSQRQINAEVLRGIGNNSQKSRDLVDRHLPAFLRFAGREFIGVQGTQLSRYLEGGELSYRMYCFTKD”, the “soluble on expression in E. coli” value is reported as “not soluble”.
For “MAFTEHSPLTPHRRDLCSRSIWLARKIRSDLTALTESYVKHQGLNKNINLDSADGMPVASTDQWSELTEAERLQENLQAYRTFHVLLARLLEDQQVHFTPTEGDFHQAIHTLLLQVAAFAYQIEELMILLEYKIPRNEADGMPINVGDGGLFEKKLWGLKVLQELSQWTVRSIHDLRFISSHQTGIP”, the “soluble on expression in E. coli” value was “soluble”.
With “MAGDPMKKQFLEKAVFTVAATAATVVLGNKMADADTYTLQEGDSFFSVAQRYHMDAYELASMNGKDITSLILPGQTLTVNGSAAPDNQAAAPTDTTQATTETNDANANTYPVGQCTWGVKAVATWAGDWWGNGGDWASSASAQGYTVGNTPAVGSIMCWTDGGYGHVAYVTAVGEDGKVQVLESNYKDQQWVDNYRGWFDPNNSGTPGSVSYIYPNLEHHHHHH” the “soluble on expression in E. coli” value was “soluble”.
With “MAGDPMKKTLTVTVSSVLAFLALNNAAHAQQHGTQVKTPVQHNYVSNVQAQTQSPTTYTVVAGDSLYKIALEHHLTLNQLYSYNPGVTPLIFPGDVISLVPQNKVKQTKAVKTPVRKASQAKKVVKQPVQQASKKVVVKQAPKQAVAKTVNVAYKPAQVQKSVPTVPVAHNYNKSVANRGNLYAYGNCTYYAFDRRAQLGRSIGSLWGNANNWNYAAKVAGFKVDKTPEVGAIFQTAAGPYGHVGVVESVNPNGTITVSEMNYAGFNVKSSRTILNPGKYNYIHLEHHHHHH” the “soluble on expression in E. coli” value was “not soluble”.
For “MAGDPMLKQLKKVIITTAIALATLCSTQAFAETNPYLLMQKTADKLFTNIKNNQTKIKANPEYLRDIVREDLMSYVHIRYAGQLVLGKSLSSVSEPQREKFFNAFGKFIEQAYAQILTQYEDQQIQIENEKPLGDKSIVSIRVNVLSSGSTPPIKLDFKWRKNSKTGEWQAYDMAAEGVSMVATKQNEWSNILRQQGIDALTNQVEKAAKQPITLNKLEHHHHHH”, the “soluble on expression in E. coli” value was “soluble”.
For “MAGEGQIRLTDSCVQRLLEITEGSEFLRLQVEGGGCSGFQYKFSLDTVINPDDRVFEQGGARVVVDSDSLAFVKGAQVDFSQELIRSSFQVLNNPQAQQGCSCGSSFSIKL”, the “soluble on expression in E. coli” value was “soluble”.
For “MAGILHNEGVKVAITTDHPVTRIQDLLICAGLAAKEGLGIEEGLKAITINPAEICNVANRVGSIEVNKDADIAIFDGNPMETFTKTMYTIINGEIVYSLKDLEHHHHHH”, the “soluble on expression in E. coli” value was “not soluble”.
With “MAGISLLLDQAFHRHFADFFTLRSVDNRVLLNLASPRHQLAKQSLVLLAKCCFLFHLSVSISNFPTVYPTRSTIDRFKRIFPHSPRVNADLSSSSWQTSRRNYCDHALEEYVDKIFVDEAVNELQTIQDILRWSVSRFSAANIWYGHGTDNPWDEAVQLVLPSLYLPLDIPEDMRTARLTSSEKHRIVERVIRRVNERIPVAYLTNKAWFCGHEFYVDERVLVPRSPIGELINNKFAGLISKQPQHILDMCTGSGCIAIACAYAFPEAEVDAVDISPDALAVAEQNIEEHGLIHNVIPIRSDLFRDLPKVQYDLIVTNPPYVDAEDMSDLPNEYRHEPELGLASGTDGLKLTRRILGNAADYLADDGVLICEVGNSMVHLMEQYPDVPFTWLEFDNGGDGVFMLTKEQLIAAREHFAIYKD” the “soluble on expression in E. coli” value was “not soluble”.
For “MAGKVKWVTDIEKSVLINNFEKRGWIQVTDSEDWNFYWMSIQTIRTVFSVDTGYRLTDDQMVNHFPNHYELTRKDLMIKNIKRYRRELEKENSALAEKDDSGKYIYLDFVPVTFMLPADYNLFVEEFRKSPSSTWIMKPCGKAQGKGIFLINKLSQIKKWSRDSRTSTFVAANSGKEAYVISLYIDNPLLIGGKKFDLRLYVLVTTYRPLKCYMWVQESSE”, the “soluble on expression in E. coli” value was “not soluble”.
In the case of “MAGLPDQRLANEALKRGDTVTAQQNYQQLAELGYSEAQVGLADIQVGTRDPAQIKQAEATYRAAADTSPRAQARLGRLLAAKPGATEAEHHEAESLLKKAFANGEGNTLIPLAMLYLQYPHSFPNVNAQQQISQWQAAGYPEAGLAQVLLYRTQGTYDQHLDDVERICKAALNTTDICYVELATVYQKKQQPEQQAELLKQMEAGVSRGTVTAQRVDSVARVLGDATLGTPDEKTAQALLEKIAPGYPASWVSLAQLLYDFPELGDVEQMMKYLDNGRAADQPRAELLLGKLYYEGKWVPADAKAAEAHFEKAVGREVAADYYLGQIYRRGYLGKVYPQKALDHLLTAARNGQNSADFAIAQLFSQGKGTKPDPLNAYVFSQLAKAQDTPEANDLATQLEAPLTPAQRAEGQRLVQQELAARGTLAQSTLQLHALQEEDGEESLLEHHHHHH”, the “soluble on expression in E. coli” value is reported as “soluble”.
For “MAGMNTENENRVEALEVRLAFQDELLDALNATVARQQKEIDLLQQQIRLLYQQFRNAQPDDAPGGSLRDDIPPHY”, the “soluble on expression in E. coli” value was “not soluble”.
For “MAGPQQQPPYLHLAELTASQFLEIWKHFDADGNGYIEGKELENFFQELEKARKGSGMMSKSDNFGEKMKEFMQKYDKNSDGKIEMAELAQILPTEENFLLCFRQHVGSSTEFMEAWRKYDTDRSGYIEANELKGFLSDLLKKANRPYDEPKLQEYTQTILRMFDLNGDGKLGLSEMSRLLPVQENFLLKFQGMKLTSEEFNAIFTFYDKDRSGYIDEHELDALLKDLYEKNKKEMNIQQLTNYRKSVMSLAEAGKLYRKDLEIVLCSEPPM”, the “soluble on expression in E. coli” value was “not soluble”.
For “MAGRKEEELKDLTLLGNQGTTYSFTYNPNLLEVFDNKHPDRDYFVKFNCPEFTTLCPKTGQPDFATIYITYIPDKKCVESKSLKLYLFSFRNHGDFHEDCVNIIMNDLIKVMEPRYIEVWGKFTPRGGISIDPYCNWGRPGTKYEKMAEYRLLNHDLYPEKVDNR”, the “soluble on expression in E. coli” value was “not soluble”.
With “MAGRRRWSTEQILDAAAELLLAGDAETFSVRKLAASLGTDSSSLYRHFRNKTELLRAVADRILLSAMDGYRPEGDWKQRLTAVALRLRESFGQQPQLAAVWGRHGSGGTGSRLMMEEVLQALRASGLPDDEIPARYHRLVILISSLITAEGGFGAVGAQEHEQGMEQFRVAVLGADPERFPALSHFAREIRPLGADRGAAFEEILAAHLAHLEAAAP” the “soluble on expression in E. coli” value was “soluble”.
